The values that follow are results of earlier work, collected in publication PMC11893814.

pKd: −log10 of the molar value.

The data set deals with wild-type microtubule GTP cap (Homo sapiens) (UniProt P68363).
Sequence of UniProt P68363 (P68363 whole entry, chain 1 of 2): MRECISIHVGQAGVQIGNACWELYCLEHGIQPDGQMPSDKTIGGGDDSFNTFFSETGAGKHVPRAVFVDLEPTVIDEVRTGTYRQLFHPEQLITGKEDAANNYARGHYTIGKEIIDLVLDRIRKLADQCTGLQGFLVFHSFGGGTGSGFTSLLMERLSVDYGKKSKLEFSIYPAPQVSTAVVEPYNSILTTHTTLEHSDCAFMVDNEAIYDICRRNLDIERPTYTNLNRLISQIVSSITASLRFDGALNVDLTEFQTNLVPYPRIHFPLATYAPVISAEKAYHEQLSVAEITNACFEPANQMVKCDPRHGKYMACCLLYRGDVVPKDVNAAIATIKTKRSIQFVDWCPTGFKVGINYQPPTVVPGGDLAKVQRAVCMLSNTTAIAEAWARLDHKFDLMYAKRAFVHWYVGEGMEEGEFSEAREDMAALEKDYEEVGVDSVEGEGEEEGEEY
Sequence of UniProt P68363 (A8K854 whole entry, chain 2 of 2, further chain): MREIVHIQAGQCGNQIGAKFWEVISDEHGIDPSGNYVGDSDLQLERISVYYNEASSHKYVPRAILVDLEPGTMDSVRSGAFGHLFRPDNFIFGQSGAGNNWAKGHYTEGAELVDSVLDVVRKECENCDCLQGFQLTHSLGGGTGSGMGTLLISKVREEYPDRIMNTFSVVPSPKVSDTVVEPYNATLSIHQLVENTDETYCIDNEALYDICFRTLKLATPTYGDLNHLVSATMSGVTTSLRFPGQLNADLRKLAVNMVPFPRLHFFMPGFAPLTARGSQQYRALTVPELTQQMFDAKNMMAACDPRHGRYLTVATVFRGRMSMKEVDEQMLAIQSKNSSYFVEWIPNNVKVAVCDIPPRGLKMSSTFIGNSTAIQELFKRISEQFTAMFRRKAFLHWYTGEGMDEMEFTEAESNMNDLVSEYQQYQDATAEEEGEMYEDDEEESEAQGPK

By pKd is commonly meant the Kd on a negative log10 scale, so that one unit is a factor of ten. Turning to EB3 (from UniProt Q9UPY8), the negative logarithm of the Kd (pKd) was 7.40.
